For experiment [1], the target named is T1, GST-Prp40FF1-2 (amino acids 129-264) (Saccharomyces cerevisiae, UniProt P33203 129-264).
T1 construct: Prp40, S. cerevisiae, residues 129-264 (Prp40FF1-2); also called GST-FF1-2; source: E. coli BL21, purified (glutathione Sepharose 4B)
T1 sequence (looked up): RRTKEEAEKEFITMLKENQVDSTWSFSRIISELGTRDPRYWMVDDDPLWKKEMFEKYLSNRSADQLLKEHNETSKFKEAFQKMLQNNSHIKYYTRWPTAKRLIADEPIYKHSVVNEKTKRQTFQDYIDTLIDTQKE
The experiment in a line: peptide or protein array; SPOT 15-mer peptides (3 aa shifts; alanine scan and substitution analysis of A24) on a β-alanine membrane, probed overnight at 4°C with 10 μg/ml purified GST fusion protein, detected with anti-GST antibody. To be noted: both partners purified.

In experiment [2] the target is T2, GST-Prp40FF1 (amino acids 129-201) (Saccharomyces cerevisiae, UniProt P33203 129-201).
T2 construct: Prp40, S. cerevisiae, residues 129-201 (Prp40FF1); also called GST-FF1; source: E. coli BL21, purified (glutathione Sepharose 4B)
T2 sequence (looked up): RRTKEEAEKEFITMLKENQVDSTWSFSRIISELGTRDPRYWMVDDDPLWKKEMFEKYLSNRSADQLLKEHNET
The description is as above. To be noted: both partners purified.

For DRRLADHFLGKIHLG (also called A24 peptide) [Luc7 peptide A24, D214RRLADHFLGKIHLG228], the binding result in experiment [1] and in experiment [2] was “binds” throughout.

Consider HLANDVHYDHHRSFK (Snu71, S. cerevisiae, residues 418-432) [Snu71 peptide B1, H418LANDVHYDHHRSFK432], for which, in experiment [1], the binding result is on record as “binds”.

These data come from PMC2613882, “The FF domains of yeast U1 snRNP protein Prp40 mediate interactions with Luc7 and Snu71” (BMC Biochemistry, 2008).
